From patent publication US20230220057A1 (STAIDSON BEIJING BIOPHARMACEUTICALS, published 2023)
Read-outs that look alike come from different tables or passages of the source.

T1: BDNF (UniProt P23560 129-247)
T1 construct: also called brain-derived neurotrophic factor
T1 sequence (looked up): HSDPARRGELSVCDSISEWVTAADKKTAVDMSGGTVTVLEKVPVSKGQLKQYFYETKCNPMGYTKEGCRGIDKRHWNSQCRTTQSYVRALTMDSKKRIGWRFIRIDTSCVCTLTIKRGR

T2: NT3 (UniProt P20783 139-257)
T2 construct: also called neurotrophin-3
T2 sequence (looked up): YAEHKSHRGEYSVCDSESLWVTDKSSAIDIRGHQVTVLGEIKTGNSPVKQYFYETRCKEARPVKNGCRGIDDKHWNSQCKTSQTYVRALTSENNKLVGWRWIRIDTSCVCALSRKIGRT

T3: NT4 (UniProt P34130 81-210)
T3 construct: also called neurotrophin-4
T3 sequence (looked up): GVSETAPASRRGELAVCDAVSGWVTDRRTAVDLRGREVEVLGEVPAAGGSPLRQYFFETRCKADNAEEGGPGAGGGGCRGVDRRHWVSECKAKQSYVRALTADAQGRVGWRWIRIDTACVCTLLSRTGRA


Assays:
human NGF (R&D system) [1] = biological target: T4, human NGF (R&D system) (human, UniProt P01138 122-241); assay: cell-based or functional assay
[2] = biological target: recombinantly produced human-NGF (human, UniProt P01138 122-241, limits assumed); assay: ELISA, human NGF coated, IgG titrated
Outline: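 Plates coated overnight at 4 °C with recombinant human NGF at 1 μg/ml, blocked with PBS/1% BSA. Serially diluted purified antibodies or 1:1 supernatants bound 2 h at 37 °C; detection with AP anti-human IgG Fc (1:3000, 1 h RT), PNPP substrate, OD 405 nm.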

human NGF-Fc4 (IgG4-Fc) [3] = biological target: T5, human NGF-Fc4 (IgG4-Fc) (human, UniProt P01138 122-241, limits assumed); assay: competition ELISA: antibody pre-incubated with human NGF-Fc4, binding to coated p75-Fc
T5 construct: not shown: human IgG4 Fc
Protocol: p75 inhibition ELISA assay: The p75 inhibition assay was designed to identify anti-NGF antibodies that were capable of inhibiting NGF binding to p75. In this assay, human p75-Fc (IgG1-Fc, Sinobiological) was coated at 1 μg/mL in the 96-well plates and incubated overnight at 4° C. Anti-NGF antibodies, from supernatants directly or after purified, in different dilutions, were pre-incubated with human NGF-Fc4 (IgG4-Fc) at a final concentration of 350 ng/mL for 2 hours in 37° C. A total of 50 μl of the reaction mixtures were then transferred into the p75-Fc coated 96-well plates and incubated in room temperature for 2 hrs. After washing, a secondary mouse anti-human IgG4-AP (Southern biotech) was added at a dilution of 1:1000. After 1 hour in room temperature, the plates were washed, and after adding PNPP substrate, ODs at 405 nm were read.
(§1) p75 inhibition ELISA assay: The optimized anti-NGF antibodies Ab4, Ab61, and the reference antibody Tanezumab, a humanized antibody from mouse hybridoma were further analyzed for their abilities to block NGF binding to its receptor p75. P75 inhibition assay was performed as described in Example 1.

human NGF-Fc4 (IgG4-Fc) [4] = biological target: T5, human NGF-Fc4 (IgG4-Fc); assay: competition ELISA: antibody pre-incubated with human NGF-Fc4, binding to coated TrkA-Fc
Protocol: TrkA inhibition ELISA assay: The TrkA inhibition ELISA assay was designed to identify the anti-NGF antibodies that have the capability of blocking NGF binding to its receptor TrkA. In this assay, human TrkA-Fc (IgG1-Fc, Sinobiological) was coated at 1 μg/ml in the 96-well plates and incubated overnight at 4° C. Antibodies, from cell culture supernatants or after purified, in different dilutions, were pre-incubated with human NGF-Fc4 (IgG4-Fc) at a final concentration of 70 ng/mL for 2 hours in 37° C. A total of 50 μl of the reaction mixtures were then transferred into the TrkA-Fc coated 96-well plates and incubated in room temperature for 2 hours. After washing, a secondary mouse anti-human IgG4-AP (Southern biotech) was added at a dilution of 1:1000 After one hour in room temperature, the plates were washed, and after adding PNPP substrate, ODs at 405 nm were read.
as §1, with “TrkA” for “p75”, “Ab6, Ab10, Ab16, Ab36, Ab37, Ab44, Ab45, Ab46, Ab47, Ab48, Ab49, Ab52, Ab54, Ab55, Ab56, Ab57, Ab58, Ab59, Ab60, Ab61” for “Ab61,”, “Tanezumab (Pfizer),” for “Tanezumab,”, “TrkA. TrkA” for “p75. P75”

BDNF = biological target: T1, BDNF; assay: ELISA
NT3 = biological target: T2, NT3; assay: ELISA
NT4 = biological target: T3, NT4; assay: ELISA
human NGF (R&D system) [5] = biological target: T4, human NGF (R&D system); assay: cell-based or functional assay; remark: listed apart in the source
human NGF (R&D system) [6] = biological target: T4, human NGF (R&D system); assay: cell-based or functional assay; remark: listed apart in the source
human NGF (R&D system) [7] = biological target: T4, human NGF (R&D system); assay: cell-based or functional assay; remark: listed apart in the source

T5 sequence (P01138 122-241 limits assumed): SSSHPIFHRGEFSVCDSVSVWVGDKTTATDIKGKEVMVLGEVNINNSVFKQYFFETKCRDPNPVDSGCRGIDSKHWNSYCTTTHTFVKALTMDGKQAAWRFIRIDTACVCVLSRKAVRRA
T4 sequence (P01138 122-241 limits assumed): as above
Chain of recombinantly produced human-NGF (P01138 122-241 limits assumed): as above

Chicken DRG Neurite Outgrowth Inhibition Assay IC50 (human NGF (R&D system) [1]) [pM]	TF1 Cell Proliferation Inhibition Assay IC50 (human NGF (R&D system) [1]) [pM]	EC50 [2] [ng/mL]	IC50 (human NGF-Fc4 (IgG4-Fc) [3]) [ng/mL]	IC50 (human NGF-Fc4 (IgG4-Fc) [4]) [ng/mL]	binding result (BDNF)	binding result (NT3)	binding result (NT4)	TF1 Cell Proliferation Inhibition Assay IC50 (human NGF (R&D system) [5]) [pM]	ERK1/2 Signaling Pathway Inhibition Assay IC50 (PC12 cells) (human NGF (R&D system) [6]) [pM]	Chicken DRG Neurite Outgrowth Inhibition Assay IC50 (human NGF (R&D system) [7]) [pM]	Binder
72.7	170	0.00937	525	60.2	–	–	–	–	–	–	Tanezumab (antibody, part only; not given: constant regions, V domains shown, not shown: another chain or arm of the molecule) VH: QVQLQESGPGLVKPSETLSLTCTVSGFSLIGYDLNWIRQPPGKGLEWIGIIWGDGTTDYNSAVKSRVTISKDTSKNQFSLKLSSVTAADTAVYYCARGGYWYATSYYFDYWGQGTLVTVSS VL: DIQMTQSPSSLSASVGDRVTITCRASQSISNNLNWYQQKPGKAPKLLIYYTSRFHSGVPSRFSGSGSGTDFTFTISSLQPEDIATYYCQQEHTLPYTFGQGTKLEIK
–	–	0.021	–	76.9	no binding (tested: 100 µg/mL)	no binding (tested: 100 µg/mL)	no binding (tested: 100 µg/mL)	170	–	–	Ab6 (antibody, human IgG1, V domains shown) VH: EVQLVQSGAEVKKPGATVKISCKVSGYTFITYWISWVQQAPGKGLEWMGAIDPSDSDARYSPSFQGRVTITADTSTDTAYMELSSLRSEDTAVYYCAKSDPGYSGYSLLYGFDSWGQGTLVTVSS VL: DVVMTQSPLSLPVTLGQPASISCRSSQSLVQRNGNTYLSWFQQRPGQPPRLLIYQVSNRYSGVPDRFSGSGSGTDFTLKISRVEAEDVGVYYCGQGAHLPLTFGQGTKVEIK
–	–	0.0129	–	130	no binding (tested: 100 µg/mL)	no binding (tested: 100 µg/mL)	no binding (tested: 100 µg/mL)	–	–	–	Ab44 (antibody, human IgG1, V domains shown) VH: EVQLVQSGAEVKKPGESLKISCKGSGYSFITYWISWVRQMPGKGLEWMGAIDPSDSDARYSPSFQGQVTISADKSISTAYLQWSSLKASDTAMYYCAKSDPGYSGYSLLYGFDSWGQGTLVTVSS VL: DVVMTQSPLSLPVTLGQPASISCRSSQSLVQRNGNTYLSWYQQRPGQSPRLLIYQVSNRYSGVPDRFSGSGSGTDFTLKISRVEAEDVGVYYCGQGAHLPLTFGQGTKVEIK
–	–	0.0185	–	75.7	–	–	–	184	–	–	Ab55 (antibody, human IgG1, V domains shown) VH: EVQLVQSGAEVKKPGESLKISCKISGYSFITYWISWVRQMPGKGLEWMGAIDPSDSDARYSPSFQGQVTISADKSISTAYLQWSSLKASDTAMYYCAKSDPGYSGYSLLYGFDSWGQGTLVTVSS VL: DVVMTQSPLSLPVTLGQPASISCRSSQSLVQRNGNTYLSWYQQRPGQPPRLLIYQVSNRYSGVPDRFSGSGSGTDFTLKISRVEAEDVGVYYCGQGAHLPLTFGQGTKVEIK
–	–	0.0218	–	89.9	no binding (tested: 100 µg/mL)	no binding (tested: 100 µg/mL)	no binding (tested: 100 µg/mL)	234	–	–	Ab36 (antibody, human IgG1, V domains shown) VH: EVQLVQSGAEVKKPGATVKISCKVSGYTFITYWISWVQQAPGKGLEWMGAIDPSDSDARYSPSFQGRVTITADKSTDTAYMELSSLRSEDTAVYYCAKSDPGYSGYSLLYGFDSWGQGTLVTVSS VL: DVVMTQSPLSLPVTLGQPASISCRSSQSLVQRNGNTYLSWFQQRPGQPPRLLIYQVSNRYSGVPDRFSGSGSGTDFTLKISRVEAEDVGVYYCGQGAHLPLTFGQGTKVEIK
–	–	0.014	577	70	–	–	–	346	174	78.6	Ab61 (antibody, human IgG1, V domains shown) VH: EVQLVQSGAEVKKPGATVKISCKVSGYTFITYWISWVQQAPGKGLEWMGAIDPSDSDARYSPSFQGRVTITADTSTDTAYMELSSLRSEDTAVYYCAKSDPGYSGYSLLYGFDSWGQGTLVTVSS VL: DVVMTQSPLSLPVTLGQPASISCRSSQSLVQRNANTYLSWYQQRPGQSPRLLIYQVSNRYSGVPDRFSGSGSGTDFTLKISRVEAEDVGVYYCGQGAHLPLTFGQGTKVEIK
–	–	0.0134	–	80.4	–	–	–	254	–	–	Ab10 (antibody, human IgG1, V domains shown) VH: EVQLVQSGAEVKKPGATVKISCKVSGYTFITYWISWVQQAPGKGLEWMGAIDPSDSDARYSPSFQGRVTITADTSTDTAYMELSSLRSEDTAVYYCAKSDPGYSGYSLLYGFDSWGQGTLVTVSS VL: DIVMTQSPLSLPVTLGQPASISCRSSQSLVQRNGNTYLSWFQQRPGQPPRLLIYQVSNRYSGVPDRFSGSGSGTDFTLKISRVEAEDVGVYYCGQGAHLPLTFGQGTKVEIK
–	–	0.0317	–	132	–	–	–	257	–	–	Ab37 (antibody, human IgG1, V domains shown) VH: EVQLVQSGAEVKKPGATVKISCKVSGYTFITYWISWVQQAPGKGLEWMGAIDPSDSDARYSPSFQGRVTITADKSTDTAYMELSSLRSEDTAVYYCAKSDPGYSGYSLLYGFDSWGQGTLVTVSS VL: DIVMTQSPLSLPVTLGQPASISCRSSQSLVQRNGNTYLSWFQQRPGQSPRLLIYQVSNRYSGVPDRFSGSGSGTDFTLKISRVEAEDVGVYYCGQGAHLPLTFGQGTKVEIK
–	–	0.0257	–	70.2	no binding (tested: 100 µg/mL)	no binding (tested: 100 µg/mL)	no binding (tested: 100 µg/mL)	184	–	–	Ab54 (antibody, human IgG1, V domains shown) VH: EVQLVQSGAEVKKPGESLKISCKISGYSFITYWISWVRQMPGKGLEWMGAIDPSDSDARYSPSFQGQVTISADKSISTAYLQWSSLKASDTAMYYCAKSDPGYSGYSLLYGFDSWGQGTLVTVSS VL: DVVMTQSPLSLPVTLGQPASISCRSSQSLVQRNGNTYLSWYQQRPGQSPRLLIYQVSNRYSGVPDRFSGSGSGTDFTLKISRVEAEDVGVYYCGQGAHLPLTFGQGTKVEIK
–	–	0.0124	481	74.6	no binding (tested: 100 µg/mL)	no binding (tested: 100 µg/mL)	no binding (tested: 100 µg/mL)	174	131	66.3	Ab4 (antibody, human IgG1, V domains shown) VH: EVQLVQSGAEVKKPGATVKISCKVSGYTFITYWISWVQQAPGKGLEWMGAIDPSDSDARYSPSFQGRVTITADTSTDTAYMELSSLRSEDTAVYYCAKSDPGYSGYSLLYGFDSWGQGTLVTVSS VL: DVVMTQSPLSLPVTLGQPASISCRSSQSLVQRNGNTYLSWYQQRPGQSPRLLIYQVSNRYSGVPDRFSGSGSGTDFTLKISRVEAEDVGVYYCGQGAHLPLTFGQGTKVEIK
